B1: MMP1 (parent)
chain: MFFKDRFYMRTNPFYPEVELNFIS
B2: RIT1 (parent)
chain: FHALVREIRRKEKEAVLAMEKKSK

We go through 94 variants from the supplement of paper PMC10567573.
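Also: lentivirally expressed fusions sorted by FACS into six bins by GFP to DsRed ratio, PSI derived from sequencing read proportions per bin multiplied by bin number.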

The variants in one series derive from B1. Nature of the series: protein stability index of a GFP-peptide fusion (GPS, HEK-293T) (PSI 1-6); higher = more stable. To be noted: c terminus: a fixed tail appended.
With MFFKDRFYMRTNPFYPEVEGNFIS, the protein stability index was determined as 1.59.

As to MFFKDRFYMRTNPFYPEVEWNFIS, the protein stability index is 3.09.

As for MFFKDRFYMRTNPFYPEVEQNFIS, the protein stability index was determined as 1.36.

For MFFKDRFYMRTNPFYPEVERNFIS, the protein stability index is 2.25.

In the case of MFFKDRFYMRTNPFYPEVEKNFIS, the protein stability index worked out at 3.34.

For MFFKDRFYMRTNPFYPEVENNFIS, the protein stability index came out at 2.06.

In the case of MFFKDRFYMRTNPFYPEVESNFIS, the protein stability index turned out to be 2.35.

Regarding MFFKDRFYMRTNPFYPEVEINFIS, the protein stability index worked out at 3.27.

Take MFFKDRFYMRTNPFYPEVETNFIS: the protein stability index was 1.85.

For MFFKDRFYMRTNPFYPEVEVNFIS, the protein stability index was 2.11.

Turning to MFFKDRFYMRTNPFYPEVEPNFIS, the protein stability index is 1.99.

As to MFFKDRFYMRTNPFYPEVEHNFIS, the protein stability index is 2.98.

Regarding MFFKDRFYMRTNPFYPEVELNYIS, the protein stability index worked out at 2.94.

Take MFFKDRFYMRTNPFYPEVELNLIS: the protein stability index was determined as 3.27.

On to MFFKDRFYMRTNPFYPEVELNRIS, for which the protein stability index came to 2.69.

Consider MFFKDRFYMRTNPFYPEVELNNIS, for which the protein stability index is 2.15.

In the case of MFFKDRFYMRTNPFYPEVELNMIS, the protein stability index turned out to be 2.32.

Consider MFFKDRFYMRTNPFYPEVELNGIS, for which the protein stability index amounted to 2.22.

MFFKDRFYMRTNPFYPEVELNVIS: the protein stability index was determined as 2.92.

As for MFFKDRFYMRTNPFYPEVELNDIS, the protein stability index came out at 1.31.

Take MFFKDRFYMRTNPFYPEVELNPIS: the protein stability index stood at 2.18.

As for MFFKDRFYMRTNPFYPEVELNAIS, the protein stability index worked out at 2.48.

Regarding MFFKDRFYMRTNPFYPEVELNWIS, the protein stability index was determined as 2.09.

Regarding MFFKDRFYMRTNPFYPEVELNIIS, the protein stability index stood at 3.29.

As for MFFKDRFYMRTNPFYPEVELNTIS, the protein stability index was found to be 1.65.

Consider MFFKDRFYMRTNPFYPEVELNHIS, for which the protein stability index was found to be 2.16.

As for MFFKDRFYMRTNPFYPEVELNQIS, the protein stability index worked out at 1.9.

For the variant MFFKDRFYMRTNPFYPEVELNSIS, the protein stability index was determined as 1.67.

Take MFFKDRFYMRTNPFYPEVELNEIS: the protein stability index came out at 2.38.

Take MFFKDRFYMRTNPFYPEVELNKIS: the protein stability index was 1.83.

MFFKDRFYMRTNPFYPEVELNCIS: the protein stability index stood at 2.19.

For the variant MFFKDRFYMRTNPFYPEVELNFIM, the protein stability index turned out to be 2.75.

As to MFFKDRFYMRTNPFYPEVELNFIE, the protein stability index was found to be 2.3.

Consider MFFKDRFYMRTNPFYPEVELNFIY, for which the protein stability index turned out to be 3.13.

Regarding MFFKDRFYMRTNPFYPEVELNFIH, the protein stability index worked out at 2.68.

With MFFKDRFYMRTNPFYPEVELNFIQ, the protein stability index was found to be 2.87.

Turning to MFFKDRFYMRTNPFYPEVELNFIA, the protein stability index turned out to be 2.44.

With MFFKDRFYMRTNPFYPEVELNFIC, the protein stability index came to 2.33.

As to MFFKDRFYMRTNPFYPEVELNFIW, the protein stability index came out at 3.15.

In the case of MFFKDRFYMRTNPFYPEVELNFIK, the protein stability index was 2.83.

On to MFFKDRFYMRTNPFYPEVELNFIF, for which the protein stability index came out at 3.13.

Consider MFFKDRFYMRTNPFYPEVELNFIG, for which the protein stability index came out at 2.88.

Consider MFFKDRFYMRTNPFYPEVELNFIR, for which the protein stability index worked out at 2.05.

As for MFFKDRFYMRTNPFYPEVELNFIV, the protein stability index came out at 3.21.

MFFKDRFYMRTNPFYPEVELNFIT: the protein stability index was found to be 3.07.

Take MFFKDRFYMRTNPFYPEVELNFIN: the protein stability index came out at 2.88.

On to MFFKDRFYMRTNPFYPEVELNFIP, for which the protein stability index turned out to be 3.07.

With MFFKDRFYMRTNPFYPEVELNFIL, the protein stability index was 4.01.

For MFFKDRFYMRTNPFYPEVELNFID, the protein stability index was found to be 2.77.

Regarding MFFKDRFYMRTNPFYPEVELLFIS, the protein stability index was determined as 3.

MFFKDRFYMRTNPFYPEVELRFIS: the protein stability index amounted to 2.74.

Take MFFKDRFYMRTNPFYPEVELIFIS: the protein stability index was found to be 3.34.

Turning to MFFKDRFYMRTNPFYPEVELSFIS, the protein stability index amounted to 2.91.

In the case of MFFKDRFYMRTNPFYPEVELKFIS, the protein stability index is 1.96.

In the case of MFFKDRFYMRTNPFYPEVELVFIS, the protein stability index came out at 2.67.

As to MFFKDRFYMRTNPFYPEVELGFIS, the protein stability index came out at 4.41.

As for MFFKDRFYMRTNPFYPEVELTFIS, the protein stability index was 3.97.

In the case of MFFKDRFYMRTNPFYPEVELDFIS, the protein stability index turned out to be 3.07.

With MFFKDRFYMRTNPFYPEVELWFIS, the protein stability index is 2.85.

In the case of MFFKDRFYMRTNPFYPEVELCFIS, the protein stability index came out at 3.71.

As to MFFKDRFYMRTNPFYPEVELQFIS, the protein stability index was 3.29.

MFFKDRFYMRTNPFYPEVELPFIS: the protein stability index came to 2.26.

Regarding MFFKDRFYMRTNPFYPEVELAFIS, the protein stability index is 2.56.

MFFKDRFYMRTNPFYPEVELHFIS: the protein stability index is 2.76.

As to MFFKDRFYMRTNPFYPEVELYFIS, the protein stability index came out at 3.15.

Take MFFKDRFYMRTNPFYPEVELMFIS: the protein stability index came out at 1.94.

Consider MFFKDRFYMRTNPFYPEVELFFIS, for which the protein stability index came out at 2.33.

Take MFFKDRFYMRTNPFYPEVELNFFS: the protein stability index came out at 2.41.

For MFFKDRFYMRTNPFYPEVELNFQS, the protein stability index was 2.34.

As to MFFKDRFYMRTNPFYPEVELNFES, the protein stability index turned out to be 2.33.

For the variant MFFKDRFYMRTNPFYPEVELNFRS, the protein stability index came to 3.09.

Take MFFKDRFYMRTNPFYPEVELNFAS: the protein stability index was determined as 2.47.

On to MFFKDRFYMRTNPFYPEVELNFSS, for which the protein stability index was 2.63.

In the case of MFFKDRFYMRTNPFYPEVELNFGS, the protein stability index was 1.67.

For the variant MFFKDRFYMRTNPFYPEVELNFLS, the protein stability index was 3.31.

As to MFFKDRFYMRTNPFYPEVELNFPS, the protein stability index came out at 3.27.

As to MFFKDRFYMRTNPFYPEVELNFCS, the protein stability index is 2.81.

In the case of MFFKDRFYMRTNPFYPEVELNFYS, the protein stability index is 1.75.

With MFFKDRFYMRTNPFYPEVELNFWS, the protein stability index came out at 3.27.

MFFKDRFYMRTNPFYPEVELNFTS: the protein stability index turned out to be 1.56.

With MFFKDRFYMRTNPFYPEVELNFNS, the protein stability index turned out to be 1.53.

For MFFKDRFYMRTNPFYPEVELNFVS, the protein stability index amounted to 3.61.

As for MFFKDRFYMRTNPFYPEVELNFMS, the protein stability index was found to be 3.28.

As for MFFKDRFYMRTNPFYPEVELNFKS, the protein stability index is 2.16.

Regarding MFFKDRFYMRTNPFYPEVELNFHS, the protein stability index stood at 1.76.

On to MFFKDRFYMRTNPFYPEVELNFDS, for which the protein stability index was 2.65.

In another series the parent is B2. The description is as above. The settings on record: c terminus: a fixed tail appended.
For the variant FHALVREIRRKEKEAVLIMEKKSK, the protein stability index stood at 1.69.

On to FHILVREIRRKEKEAVLAMEKKSK, for which the protein stability index was 2.12.

For the variant FHALVREIRRAEKEAVLAMEKKSK, the protein stability index was found to be 1.47.

Turning to FHALVREIRRKEKEANLAMEKKSK, the protein stability index amounted to 1.42.

Consider FHALVREIRRKECEAVLAMEKKSK, for which the protein stability index is 2.01.

As to FHALVREIRRKEKEAVLAMEKHSK, the protein stability index amounted to 1.57.

Regarding THALVREIRRKEKEAVLAMEKKSK, the protein stability index came to 4.16.

With FHALVREIRRKIKEAVLAMEKKSK, the protein stability index came to 3.76.
